In PMC11196586, “Molecular insight into interactions between the Taf14, Yng1 and Sas3 subunits of the NuA3 complex” (Nature Communications, 2024):

B4: Taf14ET (extra-terminal domain of Taf14, aa 168-243) (domain or fragment, S. cerevisiae, UniProt P35189 168-243, looked up)
chain: GSASTVKGSVDLEKLAFGLTKLNEDDLVGVVQMVTDNKTPEMNVTNNVEEGEFIIDLYSLPEGLLKSLWDYVKKNT
notes: Taf14, S. cerevisiae, UniProt P35189, ET domain, aa 168-243; Uniformly 15N-labelled for NMR; also called ET domain of Taf14

Key:
[1] = target: B4; test: NMR titration; 1H,15N HSQC of 0.05-0.2 mM 15N-labeled Taf14 proteins, 298 K, unlabeled peptide or Yng1EBM-PHD added; Tris-HCl or PBS, pH 6.6-7.5; apparent Kd from CSPs, 1:1 stoichiometry; conditions: both partners purified
[2] = target: T1, Taf14FL (full length Taf14, aa 1-244) (S. cerevisiae, UniProt P35189 1-244); test: other fluorescence titration; tryptophan fluorescence, 25 °C; 1 μM Taf14ET or Taf14FL, increasing peptide; 50 mM Tris-HCl pH 6.8 or 7.5, 150 mM NaCl, 1 mM DTT or 0.2 mM TCEP; excitation 295 nm; apparent Kd, 1:1 stoichiometry; conditions: both partners purified
T1 construct: Taf14, S. cerevisiae, UniProt P35189, aa 1-244; uniformly 15N-labelled for NMR; also called transcription initiation factor subunit 14
T1 sequence (looked up): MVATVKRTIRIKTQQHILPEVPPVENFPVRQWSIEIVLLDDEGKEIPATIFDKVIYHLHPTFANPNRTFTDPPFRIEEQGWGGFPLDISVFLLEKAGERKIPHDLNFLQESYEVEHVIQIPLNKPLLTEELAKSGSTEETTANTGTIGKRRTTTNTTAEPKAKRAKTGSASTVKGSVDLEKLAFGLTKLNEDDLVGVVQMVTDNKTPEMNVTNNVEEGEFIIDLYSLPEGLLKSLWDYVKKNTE

[3] = target: B4; test: as above; conditions: both partners purified
[4] = target: the molecule itself; test: crystal structure; Taf14ET co-crystallized with Yng1EBM peptide (molar ratio 1:2.5); 40% PEG 400, 0.1 M Tris pH 8.5, 0.2 M LiSO4; 1.9 Å
[5] = target: T2, Yng1_(EBM-PHD) (aa 100-219 of Yng1) (S. cerevisiae, UniProt Q08465 100-219); test: NMR titration; 1H,15N HSQC of 0.05-0.2 mM 15N-labeled Taf14 proteins, 298 K, unlabeled peptide or Yng1EBM-PHD added; Tris-HCl or PBS, pH 6.6-7.5; apparent Kd from CSPs, 1:1 stoichiometry; conditions: both partners purified
T2 construct: Yng1, S. cerevisiae, UniProt Q08465, EBM coupled to the PHD finger, aa 100-219; source: E. coli Rosetta-2 (DE3) pLysS, purified
T2 sequence (looked up): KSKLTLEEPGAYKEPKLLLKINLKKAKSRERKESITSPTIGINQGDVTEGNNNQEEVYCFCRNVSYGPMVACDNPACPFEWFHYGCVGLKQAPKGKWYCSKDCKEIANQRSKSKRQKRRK

[6] = format: physicochemical, Saccharomyces cerevisiae
Text: The S. cerevisiae Taf14FL (aa 1-244) (UniProt code P35189), Taf14YEATS (aa 1-137), Taf14ET (aa 168-243) and Yng1EBM-PHD (aa 100-219) (UniProt code Q08465) were cloned into pGEX-6P1, pET22b or pCIOX vectors. The F220R, I222R and L224R mutants of Taf14ET were generated using QuikChange II site directed mutagenesis kit (Agilent). Sequences were confirmed by DNA sequencing. All proteins were expressed in Escherichia coli Rosetta-2 (DE3) pLysS cells grown in either Terrific Broth, Luria Broth or in minimal media supplemented with ^15NH4Cl (Sigma). Protein production was induced with 0.3 mM IPTG for 18 h at 16 °C. Bacteria were harvested by centrifugation and lysed by sonication. GST-fusion proteins were purified on glutathione agarose 4B beads (Thermo Fisher Sci). The GST-tag was cleaved with either PreScission or tobacco etch virus (TEV) protease. After cleavage, Taf14FL and Taf14YEATS retained the pGEX-6P1vector-derived residues Gly and Pro. His-fusion proteins were incubated with Ni-NTA resin (ThermoFisher), washed and eluted with a gradient of imidazole. When necessary, removal of the His-tag was completed during an overnight dialysis, while incubating the protein with ULP1 protease. […]
Nuclear magnetic resonance experiments were performed at 298 K on Varian INOVA 900 MHz (for Taf14FL) and 600 MHz (for Taf14ET and Taf14YEATS) spectrometers equipped with cryogenic probes as described. […] NMR data were processed and analyzed using NMRPipe as previously described, with the apparent Kds being determined by a nonlinear least-squares analysis and a 1:1 stoichiometry in GraphPad Prism using the equation:2 Δδ=ΔδmaxL+P+Kd−L+P+Kd^2−4PL/2P Where [L] is the concentration of the peptide, [P] is concentration of the protein, Δδ is the observed chemical shift change, and Δδ max is the normalized chemical shift change at saturation. Normalized chemical shift changes were calculated using the equation δ=ΔδH^2+(ΔδN/5)^2 (3), where Δδ is the change in chemical shift in parts per million (ppm).

B1: L118D Yng1EBM peptide (aa 113-124 of Yng1) (peptide, UniProt Q08465 113-124, looked up)
peptide: EPKLLDKINLKK
notes: The wild-type peptide is Ac-...-NH2; source: peptide
B1 gave a Kd [1] of 430 µM.

B2: Sas3EBM peptide (aa 111-122 of Sas3), Ac-SEELKVRIKYDS-NH2 (peptide)
peptide: Ac-SEELKVRIKYDS-NH2
notes: Sas3 (something about silencing 3), catalytic subunit of the yeast NuA3 complex, aa 111-122; also called Sas3 peptide; source: synthetic peptide (Synpeptide)
Molecule B2 has a Kd [2] of 21 µM and a Kd [3] of 18 µM.

B3: L114D Sas3EBM peptide (aa 111-122 of Sas3) (peptide, UniProt P34218 111-122, looked up)
peptide: SEEDKVRIKYDS
notes: Sas3, yeast, aa 111-122 with L114D; The wild-type peptide is Ac-...-NH2; source: peptide
B3 gave a Kd [1] of 540 µM.

In the case of B4, the “stoichiometry N” value [4] is reported as 2 and the binding result [5] is reported as “binds”.

B5: F220R Taf14ET: F220R mutant of Taf14ET (aa 168-243 of S. cerevisiae Taf14) (protein, UniProt P35189 168-243, looked up, variant F220R)
chain: GSASTVKGSVDLEKLAFGLTKLNEDDLVGVVQMVTDNKTPEMNVTNNVEEGERIIDLYSLPEGLLKSLWDYVKKNT
modifications: ET domain (aa 168-243)
With B5 the “stability of mutated Taf14ET protein” value [6] was “unstable”.

B6: I222R Taf14ET: I222R mutant of Taf14ET (aa 168-243 of S. cerevisiae Taf14) (protein, UniProt P35189 168-243, looked up, variant I222R)
chain: GSASTVKGSVDLEKLAFGLTKLNEDDLVGVVQMVTDNKTPEMNVTNNVEEGEFIRDLYSLPEGLLKSLWDYVKKNT
modifications: ET domain (aa 168-243)
With B6 the “stability of mutated Taf14ET protein” value [6] was “unstable”.

B7: L224R Taf14ET: L224R mutant of Taf14ET (aa 168-243 of S. cerevisiae Taf14) (protein, UniProt P35189 168-243, looked up, variant L224R)
chain: GSASTVKGSVDLEKLAFGLTKLNEDDLVGVVQMVTDNKTPEMNVTNNVEEGEFIIDRYSLPEGLLKSLWDYVKKNT
modifications: ET domain (aa 168-243)
With B7 the “stability of mutated Taf14ET protein” value [6] was “unstable”.
